Reference: US9040626B2, “Nanofibers and morphology shifting micelles” (The Regents of the University of California, priority 2009, dated 2015)
d = 2'-deoxy (DNA); r = 2'-OH (RNA)

Experiments:
[1] = Critical micelle concentration (CMC) determination with pyrene probe; assay type: physicochemical; conditions: micelles after DNA2 hybridization
Description: Critical Micelle Concentration (CMC) determination. A stock solution of pyrene was prepared by adding 1 mg pyrene in 10 mL of 20 mM Tris buffer (pH 7.4) and sonicating for 12 hrs, followed by centrifugation at 12,000×g for 5 min. The supernatant containing pyrene as the fluorescent probe was utilized for this assay and measured on a plate reader fluorometer, SPECTRAMAX GEMINI EM (Molecular Devices). DNA-lipid concentration was measured via UV absorbance and micelles were accordingly diluted serially in 96-well microplates (black well, black bottom, FIA, Greiner Bio-One). Excitation was done over a 300-360 nm wavelength range and the emission was recorded at 390 nm. The slit width for excitation was fixed at 1 nm. The concentration was plotted on a logarithmic scale and the critical micelle concentration was determined at the intercept of the two tangents drawn where the decreasing surface tension becomes constant.

[2] = Particle size by DLS, TEM, AFM, SEM; assay type: physicochemical
From the text: (§1) General Methods. All reagents were bought from TCI or Sigma-Aldrich and used without further purification. DNA synthesis reagents and modifiers were bought from Glen Research or AZCO scientific. 3,4-di(octadecyloxy)benzoic acid was synthesized via a standard literature procedure (Tuffin, R. P.; Toyne, K. J.; Goodby, J. W. J. Mater. Chem. 1996, 6, 1271-1282). All DNA was synthesized on an ABI-391 via standard solid phase synthesis on controlled pore glass supports. Fluorescence measurements were performed on a Zeiss LSM confocal fluorescence microscope. Reaction volumes of 50 μL were used in all fluorescence experiments of this type. […] DNA-surfactant and DNA concentrations were determined via UV-Vis on a Hitachi U-2810 spectrophotometer. Dh was determined by DLS on a Nano-ZS90 Malvern Instrument. Zeta potential was also measured on the Nano-ZS90 Malvern instrument. […] The identities of organic molecules were confirmed by ^1H (400 MHz) and ^13C (100 MHz) NMR spectra recorded on a Varian Mercury Plus spectrometer. […]
General Methods. […] Fluorescence measurements were performed with a microplate reader (Perkin Elmer, HTS7000 Plus, λex=485 nm, λem=535 nm) using black 96 well plates. Reaction volumes of 100 μL were used in all fluorescence experiments of this type. […]

[3] = Zeta potential measurement with variable MgCl2 concentration; assay type: physicochemical; conditions: vesicles, 5 mM MgCl2
From the text: as §1
Zeta potential measurement with variable MgCl2 concentration. […] The zeta potential of these samples with variable MgCl2 concentrations was then measured by a Nano-ZS90 Malvern instrument. […]

[4] = system: DNAzyme; assay: DNAzyme catalysis experiments: particle substrate vs ssDNA substrate; assay type: biochemical
Description: DNAzyme catalysis experiments. Fluorescence was directly measured at time points of 2 min, 5 min, 10 min, and 15 min after adding DNAzyme to F-ssDNA solutions in a 96-well plate. Maximum fluorescence for the DNAzyme (5 nM) added to micellar particles (0.14 g/L) at 15 minutes was set to a value of 1 for normalization of data. Complete consumption of particle bound substrate was confirmed by a calibration curve plotted for fluorescence vs concentration of a fluorescein-modified oligonucleotide (DNA-F—see above for synthesis and sequence). i.e. plateau in resulting curve is due to consumption of substrate not product inhibition. […] Fluorescent product from shell DNA cleavage was measured from supernatant that passed through a 10,000 MWCO spin tube filter. i.e. particles are left behind, and fluorescent product comes through for analysis at each time point. […]
The DNAzyme catalyst consists of a conserved DNA sequence forming a catalytic domain with 5′- and 3′-ends as recognition sequences.^22 Therefore, a DNA substrate with a single RNA base (rA) as the site of cleavage was chosen for incorporation in the DNA-brush copolymer architecture used to form micellar aggregates (FIG. 25). […] By centrifuging at 14,000×g for 30 seconds at given time points, the ssDNA product was separated from particles as it passed through the MWCO filter for analysis by fluorescence. […]

Substance | critical micelle concentration [1] [nM] | micelle size ([2]; after DNA2 addition to vesicles) | vesicle diameter ([2]; spherical vesicles after dialysis, Tris 50 mM pH 7.4) | zeta-potential [3] [mV] | DNAzyme turnovers ([4]; 2 μM substrate, 5 nM catalyst) [turnovers] | DNAzyme turnover over the same time scale (15 minutes) ([4]; F-ssDNA 1 μM, DNAzyme 5 nM)
DNA1-lipid: 3,4-di(octadecyloxy)benzoic acid conjugated to 5′-amino 9-mer ssDNA 5′-NH2-TCGCACCCA-3′; assembles into vesicles | 300 | 20-25 nm | approx. 500 nm | −13 | – | –
Fluorescein-5′-TCGCACCCrAGTCTCTCTCC-3′-Dabcyl (DNA TCGCACCCAGTCTCTCTCC; sugars from the 5' end d8 r1 d10, backbone not given here; further chemistry not fully specified) [F-ssDNA, fluorogenic single-stranded DNA substrate] | – | – | – | – | 1.5 | low turnover
